± gives the uncertainty stated by the source.
Assay: self-splicing fitness, log relative to wild type (ln ratio); higher = more splicing; Tetrahymena group I intron in knt gene, E. coli kanamycin selection, DiMSum; sequences stand for … in CUCUCU…GGAGGGAAAAGUUAUCAGGCAUGCACCUGGUAGCUAGUCUUUAAACCAAUAGAUUGCAUCGGUUUAAAAGGCAAGACCGUCAAAUUGCGGGAAAGGGGUCAACAGCCGUUCAGUACCAAGUCUCAGGGGAAACUUUGAGAUGGCCUUGCAAAGGGUAUGGUAAUAAGCUGACGGACAUGGUCCUAACCACGCAGCCAAGUCCUAAGUCAACAGAUCUUCUGUUGAUAUGGAUGCAGUUCACAGACUAAAUGUCGGUCGGGGAAGAUGUAUUCUUCUCAUAAGAUAUAGUCGGACCUCUCCUUAAUGGGAGCUAGCGGAUGAAGUGAUGCAACACUGGAGCCGCUGGGAACUAAUUUGUAUGCGAAAGUAUAUUGAUUAGUUUUGGAGUACUCGUGGUCG
In short: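 The eight P1ex-region nucleotides of an intron in the knt kanamycin-resistance gene on pET-22b(+) were all randomised and the library put into E. coli BL21(DE3). Six replicate transformations were grown overnight at 37°C or 30°C on LB agar with or without 25 μg/mL kanamycin, together with 100 μg/mL carbenicillin, 50 μM IPTG and 0.2% rhamnose. Colonies were pooled and amplicon-sequenced on an Illumina HiSeq 2500. Fitness from DiMSum is the error-weighted combination of wild-type-normalised replicate fold changes, kanamycin over none.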

| Sequence | self-splicing fitness (ln) (30 °C) | self-splicing fitness (ln) (37 °C) |
| --- | --- | --- |
| GAAGAGCAAUAUUACGUUAC | -2.82 ± 0.17 | -2.7 ± 0.2 |
| CCAGAGCAAUAUUACGAGAC | -4.31 ± 0.46 | -2.66 ± 0.3 |
| AUAAAGCAAUAUUACGUCCG | -0.335 ± 0.11 | 0.106 ± 0.13 |
| AGAUAGCAAUAUUACGCGGU | -2.93 ± 0.17 | -2.28 ± 0.15 |
| ACGAAGCAAUAUUACGGGGA | -2.81 ± 0.21 | -1.57 ± 0.16 |
| GGGCAGCAAUAUUACGGGUC | -2.9 ± 0.25 | -2.02 ± 0.23 |
| UAUUAGCAAUAUUACGCUAG | -2.36 ± 0.19 | -0.845 ± 0.15 |
| GUUGAGCAAUAUUACGAUAU | -2.32 ± 0.13 | -1.31 ± 0.12 |
| ACUUAGCAAUAUUACGGCCC | -1.01 ± 0.34 | -0.451 ± 0.29 |
| AUACAGCAAUAUUACGCCAA | -2.6 ± 0.19 | -1.22 ± 0.18 |
| GGUAAGCAAUAUUACGCAAG | -3.39 ± 0.26 | -2.03 ± 0.22 |
| AUAGAGCAAUAUUACGGCCA | -1.25 ± 0.15 | -1.02 ± 0.24 |
| UUGAAGCAAUAUUACGGAAA | -0.265 ± 0.1 | -0.0838 ± 0.14 |
| UAUGAGCAAUAUUACGGAGA | -2.48 ± 0.28 | -2.34 ± 0.27 |
| GAUGAGCAAUAUUACGACCC | -0.245 ± 0.34 | -0.0127 ± 0.3 |
| GAUAAGCAAUAUUACGCGAG | -1.04 ± 0.073 | -0.376 ± 0.079 |
| CGAUAGCAAUAUUACGAAGA | – | -2.21 ± 0.4 |
| GACUAGCAAUAUUACGGAGC | -1.58 ± 0.16 | -2.19 ± 0.2 |
| GUCCAGCAAUAUUACGCGGU | -3.19 ± 0.24 | -2.14 ± 0.17 |
| UACAAGCAAUAUUACGUUUG | -3.72 ± 0.13 | -2.57 ± 0.15 |
| GCAAAGCAAUAUUACGUUCA | -0.597 ± 0.064 | -0.534 ± 0.077 |
| CGGCAGCAAUAUUACGUUCC | -2.59 ± 0.14 | -1.77 ± 0.21 |
| AGCCAGCAAUAUUACGGUGU | -1.99 ± 0.084 | -2.51 ± 0.12 |
| CCUUAGCAAUAUUACGGGGU | -4.43 ± 0.28 | -2.08 ± 0.19 |
| UAACAGCAAUAUUACGAUGC | -3.84 ± 0.33 | -2.35 ± 0.26 |
| UACGAGCAAUAUUACGAUUC | -3.01 ± 0.28 | -2.83 ± 0.3 |

| Sequence | self-splicing fitness (ln) (30 °C) | self-splicing fitness (ln) (37 °C) |
| --- | --- | --- |
| AACAAGCAAUAUUACGAUGA | -0.584 ± 0.072 | -0.801 ± 0.073 |
| UAGUAGCAAUAUUACGGUAU | -2.55 ± 0.24 | -2.39 ± 0.35 |
| AGAGAGCAAUAUUACGUUCG | -2.2 ± 0.16 | -2.07 ± 0.23 |
| UUUGAGCAAUAUUACGGUCG | -3.78 ± 0.21 | -1.73 ± 0.19 |
| AUGAAGCAAUAUUACGAAUU | -1.58 ± 0.084 | -1.25 ± 0.12 |
| UGAUAGCAAUAUUACGUGUU | -3.87 ± 0.19 | -2.6 ± 0.2 |
| UCCUAGCAAUAUUACGGAAU | -3.08 ± 0.15 | -2.1 ± 0.21 |
| GGCGAGCAAUAUUACGCCGA | -2.65 ± 0.18 | -1.45 ± 0.091 |
| AGGCAGCAAUAUUACGUUGG | -3.79 ± 0.2 | -1.45 ± 0.11 |
| GUCCAGCAAUAUUACGGAUC | -4.49 ± 0.28 | -3.62 ± 0.27 |
| GGGGAGCAAUAUUACGGUCA | – | -0.676 ± 0.18 |
| UUUGAGCAAUAUUACGCGAC | -2.15 ± 0.35 | – |
| AAAGAGCAAUAUUACGCAAG | -3.4 ± 0.19 | -3.51 ± 0.36 |
| CCGCAGCAAUAUUACGUAUG | -1.31 ± 0.055 | -0.172 ± 0.068 |
| CUACAGCAAUAUUACGUUCG | -0.275 ± 0.063 | 0.0364 ± 0.083 |
| CCGCAGCAAUAUUACGGUUA | -3.25 ± 0.2 | -2.26 ± 0.2 |
| GAAUAGCAAUAUUACGCCCC | -0.0149 ± 0.39 | -0.245 ± 0.42 |
| CUUUAGCAAUAUUACGUUGC | -3.08 ± 0.28 | -3.55 ± 0.39 |
| UUUUAGCAAUAUUACGAGUG | -1.75 ± 0.13 | -1.26 ± 0.13 |
| ACAAAGCAAUAUUACGCGGA | -1.7 ± 0.078 | -0.866 ± 0.072 |
| AAAGAGCAAUAUUACGGAGG | -3.48 ± 0.22 | -2.3 ± 0.23 |
| UUCGAGCAAUAUUACGGCCA | – | -0.028 ± 0.31 |
| CGCCAGCAAUAUUACGAUAC | -3.42 ± 0.22 | -3.13 ± 0.24 |
| GCACAGCAAUAUUACGGAGU | -1.69 ± 0.05 | -0.838 ± 0.061 |
| CUAUAGCAAUAUUACGCGGA | -1.13 ± 0.49 | – |
| GCUAAGCAAUAUUACGCAUG | -2.51 ± 0.16 | -2.09 ± 0.15 |

| Sequence | self-splicing fitness (ln) (30 °C) | self-splicing fitness (ln) (37 °C) |
| --- | --- | --- |
| GUGCAGCAAUAUUACGUAGA | -2.02 ± 0.087 | -0.647 ± 0.11 |
| GUCCAGCAAUAUUACGUAUC | -0.611 ± 0.096 | -0.264 ± 0.11 |
| AGUGAGCAAUAUUACGUGGU | -3.64 ± 0.22 | -2.18 ± 0.23 |
| CUGUAGCAAUAUUACGAGCA | – | -2.01 ± 0.31 |
| UCACAGCAAUAUUACGGUGA | -3.99 ± 0.33 | -2.77 ± 0.21 |
| UGGAAGCAAUAUUACGACUG | -1.26 ± 0.24 | -0.683 ± 0.24 |
| AGUUAGCAAUAUUACGCCUA | -1.11 ± 0.16 | -0.149 ± 0.13 |
| AUCUAGCAAUAUUACGCCGA | -0.962 ± 0.17 | -0.198 ± 0.19 |
| AAAGAGCAAUAUUACGACAC | -2.67 ± 0.29 | -1.89 ± 0.41 |
| AUUGAGCAAUAUUACGUGUU | -3.91 ± 0.22 | -2.34 ± 0.14 |
| AGGCAGCAAUAUUACGUACG | -1.22 ± 0.074 | 0.303 ± 0.1 |
| GGCUAGCAAUAUUACGCAGG | -3.5 ± 0.28 | -1.81 ± 0.19 |
| UGCCAGCAAUAUUACGCGUG | -1.71 ± 0.086 | -0.381 ± 0.089 |
| CUCAAGCAAUAUUACGUUAU | -3.81 ± 0.15 | -3.39 ± 0.2 |
| UUACAGCAAUAUUACGUCGA | -0.899 ± 0.087 | 0.0863 ± 0.093 |
| UGUAAGCAAUAUUACGGUUG | -1.14 ± 0.096 | -0.58 ± 0.1 |
| GGUUAGCAAUAUUACGUCGC | -1.25 ± 0.24 | -0.982 ± 0.26 |
| ACAGAGCAAUAUUACGUGCA | -3.73 ± 0.29 | -1.57 ± 0.25 |
| GUUAAGCAAUAUUACGGAAU | -2.75 ± 0.14 | -1.39 ± 0.13 |
| UCACAGCAAUAUUACGGUGG | -3.45 ± 0.14 | -2.71 ± 0.18 |
| CCUAAGCAAUAUUACGCUGC | – | -3.02 ± 0.34 |
| AGCAAGCAAUAUUACGAAGA | -3.3 ± 0.31 | -1.74 ± 0.15 |
| UCGGAGCAAUAUUACGCGCG | -2.02 ± 0.18 | -0.752 ± 0.2 |
| CCUUAGCAAUAUUACGAGUG | -1.07 ± 0.082 | 0.122 ± 0.11 |
| CUAGAGCAAUAUUACGCUCU | -2.43 ± 0.28 | -2.8 ± 0.43 |

Source: the supplement of paper PMC7877785
